The source of these data is paper PMC7917804.

The target in the test is poly(A)-binding protein (PABP), P11940. Description: co-immunoprecipitation with anti-FLAG antibody, Western blot quantified with ImageJ. To be noted: chain shown with the change, HeLa cells, parent: est. 1.0, read off a plot. In general terms: A western blot detects proteins with antibodies after separation by electrophoresis.
poly(A)-binding protein (PABP), P11940, sequence (P11940 whole entry): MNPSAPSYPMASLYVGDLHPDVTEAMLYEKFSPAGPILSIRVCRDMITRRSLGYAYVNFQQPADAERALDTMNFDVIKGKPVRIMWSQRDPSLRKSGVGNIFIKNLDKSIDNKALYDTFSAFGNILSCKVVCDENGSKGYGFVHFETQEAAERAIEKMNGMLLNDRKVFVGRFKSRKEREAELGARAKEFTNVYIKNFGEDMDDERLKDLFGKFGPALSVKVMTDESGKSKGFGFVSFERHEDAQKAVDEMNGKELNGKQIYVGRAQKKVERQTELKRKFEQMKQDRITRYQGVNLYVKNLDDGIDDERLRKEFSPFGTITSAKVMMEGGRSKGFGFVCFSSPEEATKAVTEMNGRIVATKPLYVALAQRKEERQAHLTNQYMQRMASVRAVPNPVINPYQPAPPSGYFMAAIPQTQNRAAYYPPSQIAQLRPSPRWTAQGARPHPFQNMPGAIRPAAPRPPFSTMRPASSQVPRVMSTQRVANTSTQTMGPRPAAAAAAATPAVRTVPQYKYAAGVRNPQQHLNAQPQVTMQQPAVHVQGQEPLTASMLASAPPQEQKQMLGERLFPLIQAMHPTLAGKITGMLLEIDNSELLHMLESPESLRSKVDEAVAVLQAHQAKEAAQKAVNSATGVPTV

B1: FLAG-HA-SBP (FHS)-tagged full-length TNRC6A, wild type, Q8NDV7-2 S1616D; S1691D (protein)
chain: MDADSASSSESERNITIMASGNTGGEKDGLRNSTGLGSQNKFVVGSSSNNVGHGSSTGPWGFSHGAIISTCQVSVDAPESKSESSNNRMNAWGTVSSSSNGGLNPSTLNSASNHGAWPVLENNGLALKGPVGSGSSGINIQCSTIGQMPNNQSINSKVSGGSTHGTWGSLQETCESEVSGTQKVSFSGQPQNITTEMTGPNNTTNFMTSSLPNSGSVQNNELPSSNTGAWRVSTMNHPQMQAPSGMNGTSLSHLSNGESKSGGSYGTTWGAYGSNYSGDKCSGPNGQANGDTVNATLMQPGVNGPMGTNFQVNTNKGGGVWESGAANSQSTSWGSGNGANSGGSRRGWGTPAQNTGTNLPSVEWNKLPSNQHSNDSANGNGKTFTNGWKSTEEEDQGSATSQTNEQSSVWAKTGGTVESDGSTESTGRLEEKGTGESQSRDRRKIDQHTLLQSIVNRTDLDPRVLSNSGWGQTPIKQNTAWDTETSPRGERKTDNGTEAWGSSATQTFNSGACIDKTSPNGNDTSSVSGWGDPKPALRWGDSKGSNCQGGWEDDSAATGMVKSNQWGNCKEEKAAWNDSQKNKQGWGDGQKSSQGWSVSASDNWGETSRNNHWGEANKKSSSGGSDSDRSVSGWNELGKTSSFTWGNNINPNNSSGWDESSKPTPSQGWGDPPKSNQSLGWGDSSKPVSSPDWNKQQDIVGSWGIPPATGKPPGTGWLGGPIPAPAKEEEPTGWEEPSPESIRRKMEIDDGTSAWGDPSKYNYKNVNMWNKNVPNGNSRSDQQAQVHQLLTPASAISNKEASSGSGWGEPWGEPSTPATTVDNGTSAWGKPIDSGPSWGEPIAAASSTSTWGSSSVGPQALSKSGPKSMQDGWCGDDMPLPGNRPTGWEEEEDVEIGMWNSNSSQELNSSLNWPPYTKKMSSKGLSGKKRRRERGMMKGGNKQEEAWINPFVKQFSNISFSRDSPEENVQSNKMDLSGGMLQDKRMEIDKHSLNIGDYNRTVGKGPGSRPQISKESSMERNPYFDKDGIVADESQNMQFMSSQSMKLPPSNSALPNQALGSIAGLGMQNLNSVRQNGNPSMFGVGNTAAQPRGMQQPPAQPLSSSQPNLRAQVPPPLLSPQVPVSLLKYAPNNGGLNPLFGPQQVAMLNQLSQLNQLSQISQLQRLLAQQQRAQSQRSVPSGNRPQQDQQGRPLSVQQQMMQQSRQLDPNLLVKQQTPPSQQQPLHQPAMKSFLDNVMPHTTPELQKGPSPINAFSNFPIGLNSNLNVNMDMNSIKEPQSRLRKWTTVDSISVNTSLDQNSSKHGAISSGFRLEESPFVPYDFMNSSTSPASPPGSIGDGWPRAKSPNGSSSVNWPPEFRPGEPWKGYPNIDPETDPYVTPGSVINNLSINTVREVDHLRDRNSGSSSSLNTTLPSTSAWSSIRASNYNVPLSSTAQSTSARNSDSKLTWSPGSVTNTSLAHELWKVPLPPKNITAPSRPPPGLTGQKPPLSTWDNSPLRIGGGWGNSDARYTPGSSWGESSSGRITNWLVLKNLTPQIDGSTLRTLCMQHGPLITFHLNLPHGNALVRYSSKEEVVKAQKSLHMCVLGNTTILAEFASEEEISRFFAQSQSLTPDPGWQSLGSSQSRLGSLDCSHSFSSRTDLNHWNGAGLSGTNCGDLHGTSLWGTPHYSTSLWGPPSSSDPRGISSPDPINAFLSVDHLGGGGESM
Consider B1, for which the response (two independent experiments) is 0.89.

B2: FLAG-HA-SBP (FHS)-tagged TNRC6A-SD-WT, Q8NDV7-2 S1616D; S1691D (protein)
chain: PLHQPAMKSFLDNVMPHTTPELQKGPSPINAFSNFPIGLNSNLNVNMDMNSIKEPQSRLRKWTTVDSISVNTSLDQNSSKHGAISSGFRLEESPFVPYDFMNSSTSPASPPGSIGDGWPRAKSPNGSSSVNWPPEFRPGEPWKGYPNIDPETDPYVTPGSVINNLSINTVREVDHLRDRNSGSSSSLNTTLPSTSAWSSIRASNYNVPLSSTAQSTSARNSDSKLTWSPGSVTNTSLAHELWKVPLPPKNITAPSRPPPGLTGQKPPLSTWDNSPLRIGGGWGNSDARYTPGSSWGESSSGRITNWLVLKNLTPQIDGSTLRTLCMQHGPLITFHLNLPHGNALVRYSSKEEVVKAQKSLHMCVLGNTTILAEFASEEEISRFFAQSQSLTPDPGWQSLGSSQSRLGSLDCSHSFSSRTDLNHWNGAGLSGTNCGDLHGTSLWGTPHYSTSLWGPPSSSDPRGISSPDPINAFLSVDHLGGGGESM
For B2, for the setting “three independent experiments”, the response worked out at 0.54.
